{
  "source": "paper PMC11853024",
  "key": {"[1]": {"biological_target": "equine LH/chorionic gonadotropin receptor from pVSVG-eLH/CGR (pCORON1000 SP VSV-G), in HEK 293 cells (equine)"}, "[2]": {"biological_target": "rat FSH receptor (rFSHR), in CHO-K1 cells (rat) (UniProt P20395)", "sequence (P20395 18-692)": "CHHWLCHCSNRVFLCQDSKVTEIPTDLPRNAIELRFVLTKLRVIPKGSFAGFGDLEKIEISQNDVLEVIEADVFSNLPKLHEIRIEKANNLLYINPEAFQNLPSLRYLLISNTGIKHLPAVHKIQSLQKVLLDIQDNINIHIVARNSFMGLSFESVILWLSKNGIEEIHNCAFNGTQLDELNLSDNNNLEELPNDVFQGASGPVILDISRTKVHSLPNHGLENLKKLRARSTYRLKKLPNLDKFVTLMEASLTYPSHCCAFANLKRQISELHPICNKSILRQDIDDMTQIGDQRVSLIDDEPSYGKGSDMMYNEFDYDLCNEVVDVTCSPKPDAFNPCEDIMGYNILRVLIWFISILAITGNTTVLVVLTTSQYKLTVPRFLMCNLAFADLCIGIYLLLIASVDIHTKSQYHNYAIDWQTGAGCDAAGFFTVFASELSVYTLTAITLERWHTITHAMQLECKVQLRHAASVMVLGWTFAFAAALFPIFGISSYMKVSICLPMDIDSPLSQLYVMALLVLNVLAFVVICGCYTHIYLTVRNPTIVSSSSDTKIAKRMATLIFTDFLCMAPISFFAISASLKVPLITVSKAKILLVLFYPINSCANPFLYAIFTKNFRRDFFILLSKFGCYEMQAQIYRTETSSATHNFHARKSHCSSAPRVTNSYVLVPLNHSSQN"}, "[3]": {"biological_target": "equine LH/chorionic gonadotropin receptor (eLH/CGR), in CHO-K1 cells (equine)"}, "[4]": {"biological_target": "rat LH/chorionic gonadotropin receptor (rLH/CGR), in CHO-K1 cells (rat) (UniProt P16235)", "sequence (P16235 27-700)": "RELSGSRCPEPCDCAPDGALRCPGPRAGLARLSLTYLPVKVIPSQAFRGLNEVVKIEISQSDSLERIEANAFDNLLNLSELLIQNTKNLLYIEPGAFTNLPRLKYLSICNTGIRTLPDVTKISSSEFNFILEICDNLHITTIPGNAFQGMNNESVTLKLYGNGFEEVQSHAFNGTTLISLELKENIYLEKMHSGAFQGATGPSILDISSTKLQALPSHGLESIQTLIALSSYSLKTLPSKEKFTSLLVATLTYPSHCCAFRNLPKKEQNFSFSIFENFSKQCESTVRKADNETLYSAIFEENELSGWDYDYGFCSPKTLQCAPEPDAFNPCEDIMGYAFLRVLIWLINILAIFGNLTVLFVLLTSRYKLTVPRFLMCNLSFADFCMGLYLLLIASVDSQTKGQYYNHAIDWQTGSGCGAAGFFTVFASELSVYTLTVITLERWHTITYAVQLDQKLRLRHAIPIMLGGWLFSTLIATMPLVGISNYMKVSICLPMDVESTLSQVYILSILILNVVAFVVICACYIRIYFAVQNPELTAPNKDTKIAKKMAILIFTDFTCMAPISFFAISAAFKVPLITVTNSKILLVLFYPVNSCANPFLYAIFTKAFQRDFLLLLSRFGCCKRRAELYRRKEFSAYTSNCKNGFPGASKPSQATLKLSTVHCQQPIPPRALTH"}},
  "data": [
    {"substance": "single-chain recombinant equine chorionic gonadotropin β/α (rec-eCG β/α) (from UniProt P08751 21-169) (ligand)", "values": [
      {"measurement": "pERK1/2 activation (HTRF) in HEK 293 cells expressing eLH/CGR, 50 and 250 ng/mL rec-eCG, 0 to 30 min, fold over basal activity", "setting": "[1]", "value": 7.8, "unit": "fold"},
      {"measurement": "cAMP production (HTRF) in CHO-K1 cells expressing rFSHR, 30 min with rec-eCG: EC50", "setting": "[2]", "value": 0.1, "unit": "ng/mL"},
      {"measurement": "cAMP production (HTRF) in CHO-K1 cells expressing eLH/CGR, 30 min with rec-eCG: EC50", "setting": "[3]", "value": 0.2, "unit": "ng/mL"},
      {"measurement": "cAMP production (HTRF) in CHO-K1 cells expressing rLH/CGR, 30 min with rec-eCG: EC50", "setting": "[4]", "value": 0.03, "unit": "ng/mL"}
    ]}
  ]
}
